# B1: TPTE2 peptide 92-107 (Phosphatidylinositol 3,4,5-trisphosphate 3-phosphatase TPTE2), 16-mer library wild type / TLN1 PTB (TLN1 Phosphotyrosine-binding (PTB) domain, residues 309-401) (parent complex)
# chain 1: LADLIFTDSKLYIPLE
# chain 2: GVSFFLVKEKMKGKNKLVPRLLGITKECVMRVDEKTKEVIQEWNLTNIKRWAASPKSFTLDFGDYQDGYYSVQTTEGEQIAQLIAGYIDIILK
# Variants of: B1
# Assay: proteomic peptide phage display deep mutational scan (ProP-PD DMS): M13 P8 16-mer library selected against immobilised GST-tagged bait for four days (rounds), NGS of the eluted pools per day and pseudo-replica; bait immobilised on MaxiSorp plates (10 µg), library pre-cleared on GST, 2 h binding at 4 °C, five washes; one round per day, days 1-4; value from days 2 and 3
row,Variant,screen value
1,chain 1 LRDLIFTDSKLYIPLE [chain 1 A2R],"0.00121 average fractional NGS count over selection days 2 and 3 (reads of this peptide / all reads for the bait, averaged over …"
2,chain 1 LTDLIFTDSKLYIPLE [chain 1 A2T],"0.00695 average fractional NGS count over selection days 2 and 3 (reads of this peptide / all reads for the bait, averaged over …"
3,chain 1 LADYIFTDSKLYIPLE [chain 1 L4Y],"0.00693 average fractional NGS count over selection days 2 and 3 (reads of this peptide / all reads for the bait, averaged over …"
4,chain 1 LADHIFTDSKLYIPLE [chain 1 L4H],"0.000467 average fractional NGS count over selection days 2 and 3 (reads of this peptide / all reads for the bait, averaged over …"
5,chain 1 LADGIFTDSKLYIPLE [chain 1 L4G],"0.000192 average fractional NGS count over selection days 2 and 3 (reads of this peptide / all reads for the bait, averaged over …"
6,chain 1 LADVIFTDSKLYIPLE [chain 1 L4V],"0.0013 average fractional NGS count over selection days 2 and 3 (reads of this peptide / all reads for the bait, averaged over …"
7,chain 1 LADIIFTDSKLYIPLE [chain 1 L4I],"0.00221 average fractional NGS count over selection days 2 and 3 (reads of this peptide / all reads for the bait, averaged over …"
8,chain 1 LADTIFTDSKLYIPLE [chain 1 L4T],"0.00113 average fractional NGS count over selection days 2 and 3 (reads of this peptide / all reads for the bait, averaged over …"
9,chain 1 LADAIFTDSKLYIPLE [chain 1 L4A],"0.000153 average fractional NGS count over selection days 2 and 3 (reads of this peptide / all reads for the bait, averaged over …"
10,chain 1 LADQIFTDSKLYIPLE [chain 1 L4Q],"0.000755 average fractional NGS count over selection days 2 and 3 (reads of this peptide / all reads for the bait, averaged over …"
11,chain 1 LADPIFTDSKLYIPLE [chain 1 L4P],"0.000281 average fractional NGS count over selection days 2 and 3 (reads of this peptide / all reads for the bait, averaged over …"
12,chain 1 LADFIFTDSKLYIPLE [chain 1 L4F],"0.000915 average fractional NGS count over selection days 2 and 3 (reads of this peptide / all reads for the bait, averaged over …"
13,chain 1 LADSIFTDSKLYIPLE [chain 1 L4S],"0.00023 average fractional NGS count over selection days 2 and 3 (reads of this peptide / all reads for the bait, averaged over …"
14,chain 1 LADLIFTDSHLYIPLE [chain 1 K10H],"0.00033 average fractional NGS count over selection days 2 and 3 (reads of this peptide / all reads for the bait, averaged over …"
15,chain 1 LADLIFTDSELYIPLE [chain 1 K10E],"0.00277 average fractional NGS count over selection days 2 and 3 (reads of this peptide / all reads for the bait, averaged over …"
16,chain 1 LADLIFTDSLLYIPLE [chain 1 K10L],"0.000166 average fractional NGS count over selection days 2 and 3 (reads of this peptide / all reads for the bait, averaged over …"
17,chain 1 LADLIFTDSMLYIPLE [chain 1 K10M],"0.0107 average fractional NGS count over selection days 2 and 3 (reads of this peptide / all reads for the bait, averaged over …"
18,chain 1 LADLIFTDSPLYIPLE [chain 1 K10P],"0.000281 average fractional NGS count over selection days 2 and 3 (reads of this peptide / all reads for the bait, averaged over …"
19,chain 1 LADLIFTDSRLYIPLE [chain 1 K10R],"0.00219 average fractional NGS count over selection days 2 and 3 (reads of this peptide / all reads for the bait, averaged over …"

row,Variant,screen value
1,chain 1 LADLIFTDSALYIPLE [chain 1 K10A],"0.0017 average fractional NGS count over selection days 2 and 3 (reads of this peptide / all reads for the bait, averaged over …"
2,chain 1 LADLIFTDSNLYIPLE [chain 1 K10N],"0.000537 average fractional NGS count over selection days 2 and 3 (reads of this peptide / all reads for the bait, averaged over …"
3,chain 1 LADLIFTDSQLYIPLE [chain 1 K10Q],"0.00103 average fractional NGS count over selection days 2 and 3 (reads of this peptide / all reads for the bait, averaged over …"
4,chain 1 LADLIFTDSILYIPLE [chain 1 K10I],"0.000133 average fractional NGS count over selection days 2 and 3 (reads of this peptide / all reads for the bait, averaged over …"
5,chain 1 LADLIFTDSFLYIPLE [chain 1 K10F],"0.000223 average fractional NGS count over selection days 2 and 3 (reads of this peptide / all reads for the bait, averaged over …"
6,chain 1 LADLIFTDSYLYIPLE [chain 1 K10Y],"0.00128 average fractional NGS count over selection days 2 and 3 (reads of this peptide / all reads for the bait, averaged over …"
7,chain 1 LANLIFTDSKLYIPLE [chain 1 D3N],"0.000465 average fractional NGS count over selection days 2 and 3 (reads of this peptide / all reads for the bait, averaged over …"
8,chain 1 LAPLIFTDSKLYIPLE [chain 1 D3P],"0.000181 average fractional NGS count over selection days 2 and 3 (reads of this peptide / all reads for the bait, averaged over …"
9,chain 1 LASLIFTDSKLYIPLE [chain 1 D3S],"0.000257 average fractional NGS count over selection days 2 and 3 (reads of this peptide / all reads for the bait, averaged over …"
10,chain 1 LATLIFTDSKLYIPLE [chain 1 D3T],"0.00148 average fractional NGS count over selection days 2 and 3 (reads of this peptide / all reads for the bait, averaged over …"
11,chain 1 LAQLIFTDSKLYIPLE [chain 1 D3Q],"0.000216 average fractional NGS count over selection days 2 and 3 (reads of this peptide / all reads for the bait, averaged over …"
12,chain 1 LAGLIFTDSKLYIPLE [chain 1 D3G],"0.000214 average fractional NGS count over selection days 2 and 3 (reads of this peptide / all reads for the bait, averaged over …"
13,chain 1 LADLIFTDSKHYIPLE [chain 1 L11H],"0.000165 average fractional NGS count over selection days 2 and 3 (reads of this peptide / all reads for the bait, averaged over …"
14,chain 1 LADLIFTDSKMYIPLE [chain 1 L11M],"0.000677 average fractional NGS count over selection days 2 and 3 (reads of this peptide / all reads for the bait, averaged over …"
15,chain 1 LADLIFTDSKVYIPLE [chain 1 L11V],"0.00254 average fractional NGS count over selection days 2 and 3 (reads of this peptide / all reads for the bait, averaged over …"
16,chain 1 LADLIFTDSKGYIPLE [chain 1 L11G],"0.000473 average fractional NGS count over selection days 2 and 3 (reads of this peptide / all reads for the bait, averaged over …"
17,chain 1 LADLIFTDSKLYIGLE [chain 1 P14G],"0.000463 average fractional NGS count over selection days 2 and 3 (reads of this peptide / all reads for the bait, averaged over …"
18,chain 1 LADLIFTDSKLYIWLE [chain 1 P14W],"0.000152 average fractional NGS count over selection days 2 and 3 (reads of this peptide / all reads for the bait, averaged over …"
19,chain 1 LADLYFTDSKLYIPLE [chain 1 I5Y],"0.00125 average fractional NGS count over selection days 2 and 3 (reads of this peptide / all reads for the bait, averaged over …"

row,Variant,screen value
1,chain 1 LADLPFTDSKLYIPLE [chain 1 I5P],"0.000122 average fractional NGS count over selection days 2 and 3 (reads of this peptide / all reads for the bait, averaged over …"
2,chain 1 LADLEFTDSKLYIPLE [chain 1 I5E],"0.000204 average fractional NGS count over selection days 2 and 3 (reads of this peptide / all reads for the bait, averaged over …"
3,chain 1 LADLFFTDSKLYIPLE [chain 1 I5F],"0.000696 average fractional NGS count over selection days 2 and 3 (reads of this peptide / all reads for the bait, averaged over …"
4,chain 1 LADLVFTDSKLYIPLE [chain 1 I5V],"0.000758 average fractional NGS count over selection days 2 and 3 (reads of this peptide / all reads for the bait, averaged over …"
5,chain 1 LADLMFTDSKLYIPLE [chain 1 I5M],"0.000604 average fractional NGS count over selection days 2 and 3 (reads of this peptide / all reads for the bait, averaged over …"
6,chain 1 LADLHFTDSKLYIPLE [chain 1 I5H],"0.000463 average fractional NGS count over selection days 2 and 3 (reads of this peptide / all reads for the bait, averaged over …"
7,chain 1 LADLWFTDSKLYIPLE [chain 1 I5W],"0.00126 average fractional NGS count over selection days 2 and 3 (reads of this peptide / all reads for the bait, averaged over …"
8,chain 1 LADLDFTDSKLYIPLE [chain 1 I5D],"0.0016 average fractional NGS count over selection days 2 and 3 (reads of this peptide / all reads for the bait, averaged over …"
9,chain 1 LADLGFTDSKLYIPLE [chain 1 I5G],"0.000313 average fractional NGS count over selection days 2 and 3 (reads of this peptide / all reads for the bait, averaged over …"
10,chain 1 LADLRFTDSKLYIPLE [chain 1 I5R],"0.0019 average fractional NGS count over selection days 2 and 3 (reads of this peptide / all reads for the bait, averaged over …"
11,chain 1 LADLKFTDSKLYIPLE [chain 1 I5K],"0.000454 average fractional NGS count over selection days 2 and 3 (reads of this peptide / all reads for the bait, averaged over …"
12,chain 1 LADLQFTDSKLYIPLE [chain 1 I5Q],"0.000996 average fractional NGS count over selection days 2 and 3 (reads of this peptide / all reads for the bait, averaged over …"
13,chain 1 LADLIFTQSKLYIPLE [chain 1 D8Q],"0.000205 average fractional NGS count over selection days 2 and 3 (reads of this peptide / all reads for the bait, averaged over …"
14,chain 1 LADLIFTASKLYIPLE [chain 1 D8A],"0.000152 average fractional NGS count over selection days 2 and 3 (reads of this peptide / all reads for the bait, averaged over …"
15,chain 1 LADLIFTNSKLYIPLE [chain 1 D8N],"0.00152 average fractional NGS count over selection days 2 and 3 (reads of this peptide / all reads for the bait, averaged over …"
16,chain 1 LADLIFTYSKLYIPLE [chain 1 D8Y],"0.000841 average fractional NGS count over selection days 2 and 3 (reads of this peptide / all reads for the bait, averaged over …"
17,chain 1 LADLIFTTSKLYIPLE [chain 1 D8T],"0.000557 average fractional NGS count over selection days 2 and 3 (reads of this peptide / all reads for the bait, averaged over …"
18,chain 1 LADLIFTPSKLYIPLE [chain 1 D8P],"0.000129 average fractional NGS count over selection days 2 and 3 (reads of this peptide / all reads for the bait, averaged over …"
